Source: a protein production outcome set (Wang et al. 2014)

Experiment: label from the status in PepcDB records
In the case of “MDHHAQHHPRSHACVLPNGLRLHLAHDPAASRAAAWLRVAAGSHDEPSAHPGLAHFLEHLSFLGGAAFPGDERLMPWLQVRGGQVNASTLGKTTDYFFEVTAEHLGAGLARLIDMLARPLLDIDAQRREREVLEAEYLARSADEQTLIDAALALGLPAGHPLRRFAAGRRDSLALESDAFQRALREFHAAHYHAGNCQLWLQGPQTLDELERLAQRACADLPGRAPGASPPPPPLLPFACEALALRLPGPPRLVLGFALDALRGADEQTLLAFAELLGDRSPGGLLAALGEQGLGESVALRVVHRDARQALLALTFELFDGSAAAALEAAFFDWLGALRDDAASLLAARRPLLAEPTAPLERLRQRVLGLPAEIRPACLDALRADRCLRLHLDSELDGAEARWSAGFRLSVAPVAAAPPLAAQRHAWRFELPLPPSAAAEGALFLRWRFPGVPARSRFLALRQALRPLCGQARLGGVEMGLEALGEDWSLSLLGPRDRLEAAVRPALARLLAAPPDWRANGERLSSAERRRSATGLPIRQLLDALPGLLGEPLAEVDDWRRTRWDALVMQAAMPDPRWMPGQAAGERLEPLPPRPGRHRRELAVDGESALLLFCPLPTQEVPMEAAWRLLARLHEPAFQRRLRDELQLGYALFCGFREVGARRGLLFAAQSPRACPARLLEHMETFLQRSAEALAQLPARRLAGLRKALADDLRRAPGSFAERARRAWAEHLGGGAGRSRLLAEAALGLSGDDLLAAQARLLEARGGWWVLSSRR”, the protein production is reported as “failed”. For “MDHHHHHHHHMPRTTGMNVAVVGGGISGLAVAHHLRSRGTDAVLLESSARLGGAVGTHALAGYLVEQGPNSFLDREPATRALAAALNLEGRIRAADPAAKRRYVYTRGRLRSVPASPPAFLASDILPLGARLRVAGELFSRRAPEGVDESLAAFGRRHLGHRATQVLLDAVQTGIYAGDVEQLSVAATFPMLVKMEREHRSLILGAIRAQKAQRQAALPAGTAPKLSGALSTFDGGLQVLIDALAASLGDAAHVGARVEGLAREDGGWRLIIEEHGRRAELSVAQVVLAAPAHATAKLLRPLDDALAALVAGIAYAPIAVVHLGFDAGTLPAPDGFGFLVPAEEQRRMLGAIHASTTFPFRAEGGRVLYSCMVGGARQPGLVEQDEDALAALAREELKALAGVTARPSFTRVFRWPLGIPQYNLGHLERVAAIDAALQRLPGLHLIGNAYKGVGLNDCIRNAAQLADALVAGNTSHAP”, the protein production was “not failed”. In the case of “MDHIRTHNTHHARKSADHLCVITDGGVSAIDRVSQRNIRVRLGAEHHDQLFCQAHGLKRLLPGKSIDLHKDKKWRTLICSITKNPETSMTPDAARKNSPEMKPRKKKKRQFRQLFARSLQRLARTRSGSAEFSGPLRSVAILAQEKLGDCVLLTPLVRNLRQAFPDLEIHLITFSRASANFFMNDPQVTAVHLVKKQPRRYFREVLSRKFDLLFNTKDHPSTWFLLQSALIRARFKVGHNNPFHEGLYDRLLDTEFHAHMAVKNCALLPLLGVTADTEACRPSLPAMPVSNEIWQLLSRLAEDIRPIGVNISAGEPNRLWTEAKWRALLERFPGERFVVLSGPDDLDAKRRLEEQCPNAVASPPTRNLYEASCIVAKLRLLVTPDTSMVHVASATGTPVAGLYREAPQDISRFGPYAIPYEIVISPTGEVSGIKPESVADAVRRLMARAIGREA”, the protein production is reported as “failed”. For “MDHKKVAERVIKDVGRDNIIAGAHCATRLRLVLKDDSKVDQKALDNDPDVKGTFKTNGQYQVIIGPGDVNDVYDEFIKITGLKELSTDDLKKVAAEGQKKNPIMDFIKLLSDIFVPIIPALVAGGLLMALNNFLTSPGLFGPKSVVQMAPNVAGISSMIQVMSAAPFIFMPILVGMSAAKRFGANQFLGATIGMIMTTPGLGGATKFWDIFGLHVAQTNYQYQVIPVLVAVWVLSIFEKYFHKHLPSAVDFTFTPLLSIMITGFLTFTIIGPVFKGVSDAITNAIVWLYDTTGAFGMGVFGLSYSAIVTTGLHQSFPAVETQLLAAFAKNPASSGDFIFVTACMANVAQGAATFAVYFLTKNKKMKGLASSSGVSALLGITEPALFGVNLKYKFPFFCALIGSGVAAAFAGLMHVTAAALGSAGFLGFLSIYPRTIPMWVVSVAISFAVSFILTYVYGKSHLKEEVAEQDVPVNDATDYAEETQKAEKIGKEQLALKDEIIYSPVDGTPESLTKVNDQVFSAKLMGDGAAVIPSDGTIYAPVTGTVTIAYETKHAYGIKSDDGAEVLIHIGLDTVNLKGEHFESFVKQGQRVEKGDKLGSVDLDAVKKAGYDTTVMVVITNTANYANVQRITDAGDKHGDKLIAVTAHE”, the protein production was “failed”. With “MDIDASSCPELYARRAYGAEMTSQHQNTPSSEQIRRAPKVLLHDHLDGGLRPGTIVELARDAGYSGLPETDPDKLGIWFREAADSGSLERYLETFAHTCAVMQTRAALVRVAAECAEDLAADGVVYAEVRYAPEQHLEAGLSLEEVVEAVNEGFRAGERRAKEDGNRIRVGALLTAMRHAARALEIAELANRYRDAGVVGFDIAGAEAGFPPTRHLDAFEYLKRENNHFTIHAGEAFGLPSIWQALQWCGADRLGHGVRIIDDIQVREDGSVKLGRLASYVRDKRIPLELCPSSNLQTGAASSYADHPIGLLRRLHFRATVNTDNRLMSGTSMSREFEHLVDAFGYTLDDMAWFSVNAMKSAFIPFDERLAMINDVIKPGYAELKSEWLFKQTASTSSSAASEE” the protein production was “not failed”. In the case of “MDIEDLRTFVAVADAGGVSAAARRLGISKSIVSRRLFRIEAELGVQLLARTTRGAALTEAGITFRDHAARASAEIDTARETILPAGELHGRLRIAMPLTFGPTHFAPVLAEMARQHPQLHIHTSYSDRFVDLIAEGFDCAIRGAYLQDSNLIAKRVGPIHGKLVASPAYIKAHGSPEMVEQLVNHQALMQGTEAWQFMDGDRIVTVQPQGKFKADSATALAAAAAAGLGIAWLPDCITHAYLASGALVPIMTRYPVPPGAVYVVRPPSQHPARKVRVLTEMLTEYFKRTPELWGVDG”, the protein production is reported as “failed”. In the case of “MDIHIKPINTFAHAEMDALYTMIFHFYEEYDPTHVITKESINDTIIHLTNHPESGSIQFVYDAENALVGYVILIKYWSNEYQGYLLFIDELYIVPDKRSLGYGRTCITLIEKTFHDIQALALEVSPKNTRAQAFYLQLGFLPNKNKTFIKIKY”, the protein production is reported as “failed”. For “MDIKEAGPFPVKKEQFRMTVNGQAWEVAAVPTTHLSDLLRKEFQLTGTKVSCGIGRCGACSILIDGKLANACMTMAYQADGHSITTIEGLQKEELDMCQTAFLEEGGFQCGYCTPGMIIALKALFRETPQPSDKDIEEGLAGNLCRCTGYGGIMRSACRIRRELNGGRRESGF”, the protein production was “failed”. For “MDIQGLLERLKPFIIIVLLFSVVFYIRAEASNIGGVPADAKKFYEDADGLPYFSEMDSYYNYRLTMNYLTKGIMGDTLVDGKPYDLHSYYPPGRPVDYPPLIVYVTSAAYRVLNFFGDFSLKEVAFWMGAFIGSLCVIPAYLFVRRITNDYGGFAAALIVGLVPTYVAHTYAGFFDTDMFNFVLPLFVFWFFTEGMLASSMRGKVGYALAAAVSILVFSAAWVGYIFYLAVLIVFVAAYLVISRYILGEKPAGEFEGKLDWLIHQRELFPLLILIIAGGVLVGVFGGFSSLAGAVGGLIGATQIQATAQTTAYPNVYVSVSELQVPEFITTGAGNIFLPGQNTIVGGVGGLLVFIIGVLGVGALVWKYRQPEVVVEESENRPRAGKKSKFMRKKRAAVASEEMRHRYLLYAVLMAVWLIMSGYAVTKGSRFIPTFAMPLGLSAGIFTGFLVEYLRVRFTTTSSLALIVFVAAVAMVMPFGVSVAVKLLAGVLAAGFIYSVKKPEIRAPFMMVLVVLAAVAPSVSGAHSITTSVAPGTDDGMWNSMQWVKKNTSRDTVVMSWWDFGHLFAVAADRPVTFDGGSQNTPRAYWIGKALTTSNETLSRGILTMLSTSGDLAYETLDNYTDDSGKTAEILTATLGLPREEARAVMTGRYGLSDKEADSVLRYSHPAKPKPFVLVLSSDMLGKAPWWTYFGTWDFKKKTGSRYGYYPSLASSKPQVVNNTTVIQTVNTMVDQNNVLGTIIEKKANTTNATIAVGNNMTVQKINPHRLTIIEGDLLVKNEVVDSDAQLSLIVIGSGNQYTTIIMNRELEDSVFTKLFLLGGFNQTSFKFLHQEPGVLLWTAA”, the protein production was “failed”. For “MDISLLKQVVQSTNKIALSTAVNNEADVKIVNFVWYEAQPDTLYFSSVKTSPALKVYDQNPDIAFITIPNDGTAGNPYLRAQHVKLQRSTKTMTDLLPQYLETVPNYQQVWDAIGSTLVVFELKLTDLFVDAGVGGEKQTLTFN”, the protein production was “not failed”. In the case of “MDITSLINANVICLDLTSTSKEDILQEMVQILDDAGKLSNKTQFLSDVWAREEIGNTGFEDGIAIPHAKSSAVLTPSVAIGISRTGIDYGAEDGEPSDIFFMLASTDGDDNQHIEALAQISSRLIEDGFTNKLKKADSKEEILDLFTDIIQPNTESTDIENAPSQIEKSELTRKLGRTKEHLLFGTSHMIPFIVAGGVLLSLSVMISGQGAVPTEGILADIAQMGIAGLTLFTAVLGGYIAYSIADKPGLAPGMIGSWIAVQQYNTGFLGAIIIGFFAGFVVRSLKKIKLPESMASLGSIFIYPLVGTFLTCAAVMWVIGAPISNAMAALNEWLASMAGSGKIALGAILGAMAAFDMGGPINKVATLFAQTQVNTQPWLMGGVGIAICTPPLGMALATFLSPKKFKRDEREAGKAAGIMGMIGITEGAIPFAAADPARVIPAIVAGGIVGNITGFVFNVLNHAPWGGWIVLPVVDGKIGYIIGTLLGAFTTAAIVILLKKNAVEDDEHTQQKFTFESVKNEGEADVLAVTACPSGVAHTFLAAKSLEKAAHKLGIKIKVETQGADGINNRITPLDIKNAKLVIFAHDVAIKEPLRFKGMRTLDIATKDAMYSAEQLLNDNLTKHHKRFSKA”, the protein production is reported as “failed”. For “MDKKEYSETFYHPYKPYDIQVQLMETVYRVLSEGKKIAILESPTGTGKTLSLICATMTWLRMNKADIFTRMETNIKTNEDDSENLSDDEPDWVIDTYRKSVLQEKVDLLNDYEKHLNEINTTSCKQLKTMCDLDKEHGRYKSVDPLRKKRKGARHLDVSLEEQDFIPRPYESDSENNDTSKSTRGGRISDKDYKLSELNSQIITLLDKIDGKVSRDPNNGDRFDVTNQNPVKIYYASRTYSQLGQFTSQLRLPSFPSSFRDKVPDEKVKYLPLASKKQLCINPKVMKWKTLEAINDACADLRHSKEGCIFYQNTNEWRHCPDTLALRDMIFSEIQDIEDLVPLGKSLGICPYYASREALPIAEVVTLPYQYLLSESTRSSLQINLENSIVIIDEAHNLIETINSIYSSQISLEDLKNCHKGIVTYFNKFKSRLNPGNRVNLLKLNSLLMTLIQFIVKNFKKIGQEIDPNDMFTGSNIDTLNIHKLLRYIKVSKIAYKIDTYNQALKEEESSKNENPIKETHKKSVSSQPLLFKVSQFLYCLTNLTSEGQFFFEKNYSIKYMLLEPSKPFESILNQAKCVVLAGGTMEPMSEFLSNLLPEVPSEDITTLSCNHVIPKENLQTYITNQPELEFTFEKRMSPSLVNNHLFQFFVDLSKAVPKKGGIVAFFPSYQYLAHVIQCWKQNDRFATLNNVRKIFYEAKDGDDILSGYSDSVAEGRGSLLLAIVGGKLSEGINFQDDLCRAVVMVGLPFPNIFSGELIVKRKHLAAKIMKSGGTEEEASRATKEFMENICMKAVNQSVGRAIRHANDYANIYLLDVRYNRPNFRKKLSRWVQDSINSEHTTHQVISSTRKFFSMRSLNSR”, the protein production was “failed”. For “MDKKPLNTLISATGLWMSRTGTIHKIKHHEVSRSKIYIEMACGDHLVVNNSRSSRTARALRHHKYRKTCKRCRVSDEDLNKFLTKANEDQTSVKVKVVSAPTRTKKAMPKSVARAPKPLENTEAAQAQPSGSKFSPAIPVSTQESVSVPASVSTSISSISTGATASALVKGNTNPITSMSAPVQASAPALTKSQTDRLEVLLNPKDEISLNSGKPFRELESELLSRRKKDLQQIYAEERENYLGKLEREITRFFVDRGFLEIKSPILIPLEYIERMGIDNDTELSKQIFRVDKNFCLRPMLAPNLYNYLRKLDRALPDPIKIFEIGPCYRKESDGKEHLEEFTMLNFCQMGSGCTRENLESIITDFLNHLGIDFKIVGDSCMVYGDTLDVMHGDLELSSAVVGPIPLDREWGIDKPWIGAGFGLERLLKVKHDFKNIKRAARSESYYNGISTNL”, the protein production was “not failed”.
